Data on 41 sequences can be found in the nanobody polyreactivity screen of Harvey et al. (2022).

The nature of this series: yeast display, Sf9 membrane polyspecificity reagent, FACS + sequencing; frameworks hold sequencing errors. The gist of the method: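 Using colony PCR, genes from sorted yeast display clones were amplified, then sequenced on MiSeq at 2 × 250 and filtered by CDR length. The clones had been stained with 10% biotinylated, detergent-solubilized Sf9 membrane reagent for 1 hour at 4 °C and sorted by FACS into low and high (top ~1%) gates on anti-HA and streptavidin fluorescence. Polyreactivity labels come from the gate of origin.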
Turning to “QVQLVESGGGLVQAGGSHRLSCAASGSTFVSNAMGGYRQAPGKERELVAGITFSGGSTYYADSVKGRFTISRDNAKNAVYLQMNSVKPEDTAVYYCAKRTYPSFYYWGQGTKVTVSS”, the “polyreactivity (PSR sort gate)” value is given as “low polyreactivity”.

Take “QVQLVGSGGGLVQAGGSLRLSCAASGRTFWTNAMGWYRQAPGKERELVAAIRNSGGRTYYADSVKGRFTISRDNAKNTVYLQMNSLKPEDTAVYYCNARSSIRPRQGGYEHWGQGTQVTVSS”: the “polyreactivity (PSR sort gate)” value is on record as “low polyreactivity”.

As for “QVHLVESGGGLVQAGGSLRISCSASGPSYTHYAMGWYRQAPGKERELVASICDGGGTHYADSVKGRFTISRDNAKNTVYLEMKSLKPEDTAVYYCATYRYPTRRYDYWGQGTQVPVSS”, the “polyreactivity (PSR sort gate)” value is given as “low polyreactivity”.

As to “QVQLVESGGGLVQAGGSLRLSCAASGSTFLKYDMGWYRQAPGKERELVAAISWDGGSTYYADSVKGRFTISRDNAKNTVYLQMNSLKPEDTAVYYCNADYDVYLTIWYYYGEFDYWGQGTQVTVSS”, the “polyreactivity (PSR sort gate)” value is given as “low polyreactivity”.

Take “QVQLVESGGGLVQAGGSLRLSCAASGSTINYYAMGWYIQAPGKERELVARITWSGARTYYADSVKGRFTISRDNAKNTVYLQMNSLKPEDTAVYYCAAGYLALESPWYYRWYDYWGQGTQVTVSS”: the “polyreactivity (PSR sort gate)” value was “low polyreactivity”.

With “QVQLVESGGGLVQAGGSLRLSCAASGFIFKDNARGWYRQATGKEREFVASITASGGSTTYADSVKGRFTISRDTAKNTVYLQMTSLKPEDTAVYYCAARVGWNKRRYDYWGQGTQVTVSS”, the “polyreactivity (PSR sort gate)” value is on record as “low polyreactivity”.

On to “QVQRVESGGGLVQAGGSLRLSCAASGFTFYRYAMGWYRQAPGKEREFVAVINIRGSTTYYADSVKGRFTISRDNAKNTVYLQMNSLKPEDTAVYYCARRYRGPYYSLPRRKEFDYWGQGTQVTVSS”, for which the “polyreactivity (PSR sort gate)” value is “high polyreactivity”.

“QVQLLESGGGLVQAGGSLRITCAASGFTFAVYAMGWYRQAPGKERELVAAISRSGTRTYYADSVKGRFTISRDNAKNTVYLLMNSLKPEDTAVYYCAADKYRHGYDYWGQGTQVTVSS”: the “polyreactivity (PSR sort gate)” value is given as “low polyreactivity”.

Consider “QDQLVESGGGLVQAGGSLRLSCAASGRIFPAYVMGWYRQAPGKERELVATIDNGGGTYYADSVKGRFTISRDNAKNTVYLQMNSLKPEDTAVYYCARDRHVRWGLKMDYWGQGTQVTVSS”, for which the “polyreactivity (PSR sort gate)” value is given as “low polyreactivity”.

Regarding “QVQLVESGGGLVQAGGSLRLSCAASGRIFHHNAMGWYRQAPGKERELVATITKSGGSTYADSVKGRFTISRDNAKNTVYLQMNSLKPEDTAVYYCDADVTNRGTWVIYGYYYWGQGTQVTVSS”, the “polyreactivity (PSR sort gate)” value is reported as “low polyreactivity”.

As to “QVQLVESGGGLVQAGGSLRLSCAASGSTFRPYAMGWYRQAPGKERDLVAAISSSGGSTYYADSVKGRFTISRDNAKNTVYLQMNSLKPEDTAVYYCAAVRRYRYPEYNHWGQGTQVTVSS”, the “polyreactivity (PSR sort gate)” value is on record as “low polyreactivity”.

Consider “QVQLVESGGGLVQAGGSLRLSCAQSGFTKSTYTMGWYRQAPGKESELVAAIRRSGDSTYYGDSVKGRFTISRDHAKNTVYLQMKRLKPEDTAVYYSNAVRYRFERYDYWGQGTQVTVSS”, for which the “polyreactivity (PSR sort gate)” value was “high polyreactivity”.

For “QVQLVESGGGLVQAGGSLRISCAASGRIFYVYAMGWYRQAPGKERELVAAITSGGSTYYADSVKGRFTISRDNAKNTVYLQMNSLKPEDTAVYYCAAYNRGRFRPYRFEYWGQGTQVTVSS”, the “polyreactivity (PSR sort gate)” value is on record as “high polyreactivity”.

As to “QVQLVESGGGLVQAGGSLRLSCAASGFTFDYYAMGWYRQAPGKERELVATINGASSTNYADSVKGRFTISRDNAKNTVYLQMNSLKPEDTAVYYCNARYYGPDFVLAYDYWGQGTQVTESS”, the “polyreactivity (PSR sort gate)” value is listed as “low polyreactivity”.

For the sequence “QVQLVESGGGLVQAGGSLRLSCAASGSIFVLYAMGWYRQAPGKERELVAAINYDGASTYYADSVKGRFTISRDNAKNTVYLQMNSLKREDTAVYYCAKRFGPAYFRLYDYWGQGTQVTVSS”, the “polyreactivity (PSR sort gate)” value is recorded as “low polyreactivity”.

For the sequence “QVQLVESGGSLVQARGSLRLSCAASGFIFPYYVMGGYRHAPGQERELVAAITCGGITYYAESVKGRFTISRDNAKNTVYFLMTSLKPEDTVVYYCAAENKYFYAWGSFVDDEYWGQGTQVTVSS”, the “polyreactivity (PSR sort gate)” value was “high polyreactivity”.

Regarding “QVQLVESGGGLLQAGGSLRLSCAASGFIFADYMGWNRQAPGKERELVASISSTGSSTYADSVKGRFTISRDNPKNTVYLQMNSLKPEDTAVSYCAATGVWYSWYEYASEYDYWGLGTQVTVSS”, the “polyreactivity (PSR sort gate)” value is listed as “high polyreactivity”.

For “QVQLQESGGGLVQPGGSLRLSCAATGTISDSGLMGWYRQAPGKERELVSGISSGGITQYADSVNGRFTISRDNAKNTVYLQMNSLKPEDTAVYWGQGTQVTVSS”, the “polyreactivity (PSR sort gate)” value is listed as “low polyreactivity”.

For “QVQLQESGGGLVQAGGSLRLSCAASGTFSPLPAMGWYRQAPGKERECVAGNDTGAITNYADSVKGRFTISRDNAKNTVYLQMNSLKPDDTAVYYCAVFPAAYVYYVRYYTYWGQGTQVTVCS”, the “polyreactivity (PSR sort gate)” value was “low polyreactivity”.

Consider “QVQLVESGGGLVQAGGSLRLSCAASGSTFPHYAMGWYRQAPGKERELVAAISWSGSSTYYADSVKGRFTISRDNAKNTVYLQMNSLKPEDTAVYYCNKLPRRAPQFTYDYWGQGTLVTVSS”, for which the “polyreactivity (PSR sort gate)” value was “high polyreactivity”.

For the sequence “QVQLVESGGGLVQAGGSLRLSCAASGSTFYAYAMGWYRPAPGKERELVAAISSDGTNYADSVKGRFTISRDNAKNTVYLQMNSLKPEDTAVYYCAADLLLYSSQDNDYWGQGTQVTVSS”, the “polyreactivity (PSR sort gate)” value was “low polyreactivity”.

Regarding “QVQLVESGGGLVQAGGSLRLSCAASGRIFTRYAMGWYRQAPGKERELVAAITQRGGTTYYADSVKGRFTISRDNAKNTVYLQMNSLKPEDTAVDYCATRYRYYTERDYWGQGTQVTVSS”, the “polyreactivity (PSR sort gate)” value was “high polyreactivity”.

Take “QVQLVESGGGLVQAGGSLRLSCAASGFTFENYAMGWYRQAPGKERELVAAITRTGGITYYADSVKGRFTISRDNAKNTVYLQLNSLKPEDTAVYYCDADDTWTRPKNYDRYDYWGQGTQVTVSS”: the “polyreactivity (PSR sort gate)” value is “low polyreactivity”.

Turning to “QVQLVESGGGLVQAGGSLRLSCAASGSTFNHYTMGWYIQAPGKERELVAAISSRGGGTYYADSVKGRFTISRDNAKNTVYLQMNSLKPEDTAVYYCAALISSGIRHSRDYWGQGTQVTVSS”, the “polyreactivity (PSR sort gate)” value is “high polyreactivity”.

For “QVQLVESGGGLVQAGGSLRLSCAASGSIFGKNAMGWYRQAPGKERELVAAITRRGGSTYYADSVKGRFTISRDNAKNTVYLQMNSLKPEDTAVYYCNALLTGGYQDSYPDDYWGQGTQVTVSS”, the “polyreactivity (PSR sort gate)” value is recorded as “high polyreactivity”.

Consider “QVQLVESVGGLVQAGGSLRLSCAASGGIFNGYAMGWYRQAPGKERELVAAITASGARTYYADSVKGRFTISRDNAKNTVYLQMNSLKPEDTAVYYCAKGFSYPGGPYYYFLGYGYWGQGTQVTVSS”, for which the “polyreactivity (PSR sort gate)” value was “high polyreactivity”.

Regarding “QVQLVESGGGLVQAGGSLRLSCAASGFTFYDNAMGWYRQAPGKERELVAAITSNGVNTHYADSVKGRFTISRDNAKNTVYLQMNSLKPEDTAVYYCAADRDPEVTYQKYEYWGQGTQVTVSS”, the “polyreactivity (PSR sort gate)” value is listed as “low polyreactivity”.

“QVQLVESGGGLVQAGGSLRLSCAASGNTFAENAMGWYRQAPGKERELVDAISNGGTTNYADSVKGRFTISRDNAKNTVYLQMNSLKPEDTAVYYCNAKFGISQPGHSGLLKMDYWGQGTQVTVSS”: the “polyreactivity (PSR sort gate)” value was “low polyreactivity”.

Turning to “QVQLVESGGGLVQAGGSLRLSCAASGLIFGRYAMGWYRQAPGKERELVAAISSSGVRTYYADSVKGRFTISRDNAKNTVYLQMNSLKPEDTAVYYCAAAYWSSREDTVIKRYYWGQGTQVTVSS”, the “polyreactivity (PSR sort gate)” value is “high polyreactivity”.

Turning to “QVQLVESGGGLVQAGGSLRLSCAASGSTFSYNAMGWYRQAPGKERELVAAISRGDVSTYYADSVKGRFTISRDNAKNTVYLQMNSLKPEDSAVYYWAAYWYGSQYKWRYDYWGQGTQGTVSS”, the “polyreactivity (PSR sort gate)” value is “low polyreactivity”.

As to “QVQHVESRGGLVQAGGSLRLSCAASGIILSPYAMGWYRQAPGKERELVAAISRSGGSTYYADSVKGRFTISRDNAKNTVYLQMNSLKPEDTAVYYCAARYHVYSNYYKYDYCGQGTQVTVSS”, the “polyreactivity (PSR sort gate)” value was “high polyreactivity”.

Regarding “QVQLVESGGGLVQAGGSLRLSCAASGSTFCYYAMGWYRQAPGKERELLAAITRSGGRTYYADSVKGRFTISRDNAKNTVYLQMNSLKPEDTAGYYCAADSRVGFGRLYGYWGQGTQVTVSS”, the “polyreactivity (PSR sort gate)” value is “high polyreactivity”.

Turning to “QVQLVESGGGLVQAGGSLRLSCAASGITFGGNAMGWSRQAPGKERELVAAIDEGGGSTYYADSVKGRFTISRDNAKNTVYLQMNSLKPEDTAVYYCAADFVYYGYYYWGQGTQVTVSS”, the “polyreactivity (PSR sort gate)” value is “low polyreactivity”.

Take “QVQLVETGGGLVQAGGSLRLSCAASGFTFKFNTMGWYRQAPGKERELVAAISWRGGDTSYADSVKGRFTISRDNAKNTVYLQMNSLKPEDTAVYYCAASPRYPYWYDYWGQGTQVTVSS”: the “polyreactivity (PSR sort gate)” value was “low polyreactivity”.

For the sequence “QVQLVESGGGLVQAGGSLRLSCAASGSIFSYYAMAWYRHAPGKEREMVAAITSGGATTYYADSVKGRFTISRDNAKNTVYLQMNSLKQEDTAVYFCAAGYYVYFRWWELDYWGQGTQVTVSS”, the “polyreactivity (PSR sort gate)” value is given as “low polyreactivity”.

“QVQLVESGGGLVQAGGSLRLICAASGSIFVIYAMGWYRQAPGKERELVAAITSGGNTTYADSVKGRFTISRDNAKNTVSLQMNSLKPEDTAVYYCSADYPWEYDYWGQGTQVTVSS”: the “polyreactivity (PSR sort gate)” value was “low polyreactivity”.

Take “QVQLVESGGGLVQAGGSLRLSCAASGRIFARNAMGWYREAPGKERELVATIRVGGGSTYYADSVKGRFTISRHNAKNTVYLQMNSLKPEDTAVYYCAVRQLYSYPGDRRGYYWGQGTQVNVSS”: the “polyreactivity (PSR sort gate)” value is on record as “low polyreactivity”.

As for “QVQLVESGGGLVQAGGSLRLSCAASGRTFSVYAMGWYRQAPGKERELVAAISGRGGRTYYADSVKGRFTISRDNAKNTVYLQMNSLKPEDTAVYYCTADVGVYHDDYWGQGTQVTVSS”, the “polyreactivity (PSR sort gate)” value is given as “high polyreactivity”.

Consider “QVQLVESGGGLVQAGGSLRLSCAASGRTFFRNAMGWYRQAPGKERELVAGISRSGGSTYYADSVKGRFTISRDNAKNTVYLQMNSLKPEDTAVYYCAASFRFYRTGYYYWGQGTQVTVSS”, for which the “polyreactivity (PSR sort gate)” value is reported as “high polyreactivity”.

“QVQLVESGGGLVQAGGSLRLSCAASGLTFRRNAMGWYRQAPGKERELVAAITARGTSTYYADSVKGRFSISRDNAKNTVYLQMNSLKPEDTAVYYCNVRWHRTRSEYDYWGQGTQVTVSS”: the “polyreactivity (PSR sort gate)” value was “high polyreactivity”.

Consider “QVQLVESVGGLVQAGGSLRLSCAASGRTFKFYAMGWYRQAPGKERELVAAISSSGGRTYYADSVKGRFTISRDIAKNTVYLQMNSLKPVDTAVYYCARSSDYYFFGHYYWGQGTQVTVSS”, for which the “polyreactivity (PSR sort gate)” value is listed as “high polyreactivity”.
